Among the data in article PMC8911618, “Application of β-Glucosidase in a Biphasic System for the Efficient Conversion of Polydatin to Resveratrol” (Molecules, 2022) are Km values, retold here.

This data set relates to T1, O=[N+]([O-])c1ccc(O[C@@H]2O[C@H](CO)[C@@H](O)[C@H](O)[C@H]2O)cc1.
T1 construct: signal peptide removed, starts at residue 29 with added Met; C-terminal His6 (reverse primer), pQE30, E. coli JM109, Ni-NTA
Briefly: purified protein. It counts as biochemical, Sphingomonas sp. ATCC 31555. The following applies: McIlvaine buffer, pH 5.5, 45 °C, 0.1–20 mM pNPG.

Consider SpBGL1 (Sphingomonas sp. ATCC 31555), for which the Km (as a rule, the concentration of substrate that gives half-maximal velocity) came out at 13.09 ± 3.43 mM.
